Common to all, as to assay: cellular competition assay vs FL-labelled reference peptide on B cells; affinity category (high/good IC50<5 uM, intermediate 5-15 uM, low >15-50 uM)
For one experiment, the target named is T1, HLA-A*0301 (human).
T1 construct: whole, on cells; Class I molecule on intact B cells (EKR); also called A3

For a further experiment, the target named is T2, HLA-A*0101 (human).
T2 construct: whole, on cells; also called A1

The target in the next experiment is T3, HLA-A*1101 (human).
T3 construct: whole, on cells; Class I molecule on intact B cells (BVR)

A word on the IC50: it is the concentration that gives 50% inhibition. Lower therefore signals greater potency. Regarding RVRAMAIY (also called A3 (156-163)) [p53 156-163 RVRAMAIY], the half-inhibitory concentration (IC50) in the experiment with HLA-A*0301 fell in the range of 5 to 15 µM. Consider CTTIHYNY (also called A1 (229-236)) [p53 229-236 CTTIHYNY], for which, in the experiment with HLA-A*0101, the IC50 was 5 to 15 µM. On to GGSRAHSSHLK (also called A3 (360-370)) [p53 360-370 GGSRAHSSHLK], for which, in the experiment with HLA-A*0301, the IC50 was 5 to 15 µM. On to GQSTSRHKK (also called A11 (374-382)) [p53 374-382 GQSTSRHKK], for which the IC50 in the experiment with HLA-A*1101 lay in the range of 5 to 15 µM.

With GTAKSVTCTY (also called A1 (117-126); A3 (117-126)) [p53 117-126 GTAKSVTCTY], the half-maximal inhibitory concentration (IC50) in the experiment with HLA-A*0301 and with HLA-A*0101 was 5 to 15 µM throughout. As for YLDDRNTFRH (also called A1 (205-214)) [p53 205-214 YLDDRNTFRH], the 50% inhibitory concentration (IC50) with HLA-A*0101 lay in the range of 5 to 15 µM.

For the origin of these results see patent US20150010586A1 (ACADEMISCH ZIEKENHUIS LEIDEN H O D N LUMC, published 2015).
